According to the DeepSol protein solubility set:

assay: soluble on expression in E. coli; label from the status in PepcDB or PDB records

Soluble on expression in E. coli, not soluble:
MGSDKIHHHHHHMLMESVVSVFDPDLTHLPAVAHRLQFSDPESEVPLHVHRKGQLILALHGAVTCTAGNEIWIVPPNCGVWIPGGVPHSARATANAQLNYLFVEPEAANLPGSSCTLAISPLIREMVERLAEERADYLADSHAARIARVLLDELADMPRERFNLPISSHPKIRAIADALTAEPSDRRTLSDWAKQVAMSERSLARLLIRETGLTFGRWRQQLHLVVALRELASGEAVQNVAAGLGYESVNAFITMFKKALGSTPAQYFAQRHAPTKAGSGEQNRV, MGSDKIHHHHHHMLNQSNELNAWDRDHFFHPSTHMGTHARGESPTRIMAGGEGVTVWDNNGRKSIDAFAGLYCVNVGYGRQKIADAIATQAKNLAYYHAYVGHGTEASITLAKMIIDRAPKGMSRVYFGLSGSDANETNIKLIWYYNNVLGRPEKKKIISRWRGYHGSGVMTGSLTGLDLFHNAFDLPRAPVLHTEAPYYFRRTDRSMSEEQFSQHCADKLEEMILAEGPETIAAFIGEPILGTGGIVPPPAGYWEKIQAVLKKYDVLLVADEVVTGFGRLGTMFGSDHYGIKPDLITIAKGLTSAYAPLSGVIVADRVWQVLVQGSDKLGSLGHGWTYSAHPICVAAGVANLELIDEMDLVTNAGETGAYFRAELAKAVGGHKNVGEVRGDGMLAAVEFVADKDDRVFFDASQKIGPQVATALAASGVIGRAMPQGDILGFAPPLCLTREQADIVVSKTADAVKSVFANL, MGSDKIHHHHHHMLPETMKAVVLTAHGGLDKLVYRDDVPVPVCRAGEVLLDVTACGLNNTDVWVREGAYGTDDDPQAVSTWRRGRSTLSFPRIQGADIVGRVIAVGHGVSDARVGERVIVDASIYNRDDDSLADIDYIGHGRDGGYAEYTAVPAQSAHRIDSACSDAELATFWCAYHTGEQMIERAAVKSGETVLITGASGGVGSAIVQLCRARGAVPYAVVSKGKEEAVRELGAQGVMLRDSEDFAAAVERMTGGRPVDVVADLVGGALFGKLLNVLRPEGRYTTAGAIAGPVVQLDLRTMYLKQLQLNGSSQGTRGAFKRVLDYIQAGTIRPVLAATYPLSKFHEAQTQFMAKRFVGNIVVVPDRHYNGTADRT, MGSDKIHHHHHHMLRAGWFFEGIQDNDLLKLKEACKAFNLDGVLLSSLVLSRLYGVCYVLLGTVDGGDLDQPFDLNKLGIGRLEFFTVLKKKYIEADTSKYLSPKEAGGLLKQPEFYKLKLDGKSTQRIHHTRLYKFGHADVVNEEPVSVLQEVYEDLLDHAAVKKASASLVHESKIDVIRTPNLVDKIKEDMKSVAERFLSVGLLKGLNGMIVLDKEEEYDSKSYSFGGLPDLMREFSIQAAGAADMPYTILFGQSPAGMNATGEHDTRNYYDSIATKQTWSLKPFMMKLLRVIVQTTFGRQIPSLDVVFNPLWQLDAKVRSEVEKANAERDSKYLEMGIITEPQIAKQLVIDGVYSVIDEAHIKELETMVKLNDNDNSDPETTPPAGEET, MGSDKIHHHHHHMLRLITDFDGPIIDVSERYYRVYQFCLEKTRRPDQVVQELPKAEFWQLKRSRVPEKQIAFNSGLDEAQAQEFAQLRRQTVHTEAYFNYDTLAPGAVDALLKIQEAGIDLAVMTMRRVRELDYAFKKYDLGRFFPENRCYCLSNDYVKTRDIEDKPLLMARALKELPPAADTWMVGDTEADITAAKNYDIKVMAVESGIRDRTQLELYHPDLIVKDFSTAVDLVLKPKHLV, MGSDKIHHHHHHMLRYHMQGFSGYGVQYSPFFDNRLAVAAGSNFGLVGNGKLFILEIDRSGRIVEVNSFLTQDCLFDLAWNESHENQVLVAQGDGTLRLFDTTFKEFPIAIFKEHEREVFSCNWNLVNRQNFLSSSWDGSIKIWSPLRKQSLMTLTPRPLEITKMVDPLNAIILKKKSFTGISKNRNCVYQAQFSPHDQNLVLSCSGNSYASLFDIRLPSGKNQNNFLVHSGLEALTCDFNKYRPYVVATGGVDNAIRIWDIRMLNKNESATIKRTVPGQLHNSSCINEIPNAHGLAIRKVTWSPHHSNILMSASYDMTCRIWRDLSNDGAKETYKTNSTDATKGSIFNFTQHSEFVFGADWSLWGKPGYVASTAWDGNLFVWNGLG, MGSDKIHHHHHHMLSHEEIVAIAEDLLSKRYGGVQTLSDVEQLNGSGTSAVLRARVANSPFLQQRSVVLKYVPSTGDVFDDSALVREIVSYQFTTSLSEDVRPGPVILAYDIDKRILVISDSGNGDTFADLIDQRTGDQRMQILRNLGQSLGSLHAATADREEDFNILLNRMLAKYPATAEMQKNRDRLLPAAIEVGKKILVDAGVTVPEVVEEFARVARRRLISGRHRAFTPFDLSPDNIIVAERTHFLDYEVAGFRDATFDVACVIAGFPQFVFSRPISDDEVDELIESWVQEVRGIWPNVNNEERLQARIVTALIGWALSSVAFMKLGSISGMLNLLHVTEDGNTTLDVSNLDELLIPRSAEDDELVQQDLHDTFSALQRFAARGLDSRFPEVARFADDVVRLFLKND, MGSDKIHHHHHHMLSKDPRLYAFRDDLADKRFETEITAQRFIQGEKKRVNTAVAGLFKENNKKSEKQTECLLGEELLIFEQGKTMSWGQSLKDGYVGYIDTTILCTSAIKQTHIVSVPRTFQYLQADLRGPMEYPLSMGSKVSVVDETEVRGTIYAILESGKAIITRHLSPIGRVYEDYVTVAETLIHTPYLWGGVSGFGIDCSGLVQLSMMMTGKMVLRDTDMQQKTIGRVLTDSDKLKRGDLVFWNGHVAIMIDHENIIHANGYSMDVMIEPLEEAVTRIAKKYQYPIEKRRPIQEM, MGSDKIHHHHHHMLTEQPNWLMQRAQLTPERIALIYEDQTVTFAELFAASKRMAEQLAAHSVRKGDTAAILLQNRAEMVYAVHACFLLGVKAVLLNTKLSTHERLFQLEDSGSGFLLTDSSFEKKEYEHIVQTIDVDELMKEAAEEIEIEAYMQMDATATLMYTSGTTGKPKGVQQTFGNHYFSAVSSALNLGITEQDRWLIALPLFHISGLSALFKSVIYGMTVVLHQRFSVSDVLHSINRHEVTMISAVQTMLASLLEETNRCPESIRCILLGGGPAPLPLLEECREKGFPVFQSYGMTETCSQIVTLSPEFSMEKLGSAGKPLFSCEIKIERDGQVCEPYEHGEIMVKGPNVMKSYFNRESANEASFQNGWLKTGDLGYLDNEGFLYVLDRRSDLIISGGENIYPAEVESVLLSHPAVAEAGVSGAEDKKWGKVPHAYLVLHKPVSAGELTDYCKERLAKYKIPAKFFVLDRLPRNASNKLLRNQLKDARKGELL, MGSDKIHHHHHHMLVPMSEGDTSELDHDADHLAEGDERYLLRNKRQIRGLLQQLIDQRAVVTMHVAGRDMAVPTAVLEVDEDDDCVILDGSHNDASNRAIEQAKYLLCYAQLERVNIRFRLETPERLERDIHVAFRATLPDSLYHLQRRESYRLETPITDSPTCTIRQDAASGGNLNLQLRVIDISSGGLAVSLTTGMPLLDPQHTYRDCTLQLPDSAPIALPLTVCSQYKMTLPNGSEGFRVGMQFSDLPRGADETIQRYIFRVDRQRNARKSGVF, MGSDKIHHHHHHMLWYDSRAQRLRERSAVWAQNQKTDPDFDGLPPKYAEELQKNILGTVVLPGDPEYDTDRMLSNPRFSAYPQVIVYCEVETDVAECLRVARALSMAVVVRSGGHSTAGFSSQNGFLIDVSRMNDVCISPEALRAWVGPGTNFGKFNAKLLPYDLHTPGGACPDVCVGGYMQGGGYGFTARIFGMNCDQVEEIRVMMTDGRIVHANAELNPDLFWAVRGGTGSNFGVLLGVKYRLYRGSTFAGFSVRWSMQTDAGVQDTATSLAWLQENFMRTGAPDTMGYQMIWAFEGPEGQAKEPVLLMRGMYRGTREELQEKLAPVLALPGATLQAIYDPQQYIDLNRILLSEPYEVPEFPADMTPMPPPEAKISRYVAKPIDAAGWKALLDYFRTSPSPYTIAAMEIYGGAIARMPKGENAFFHRDVYCDLFFDVFWLTEQEKETMLAFIAGWEAAFAPHWTGQSYQNYPSPDNPGFADEYWGDTYWLLRLIKHKYDPINLLRFPQSIQPLEWHPPGPGFPPGFRGFEDPIQAIAG, MGSDKIHHHHHHMMDRAAIRQQARFELARRDFFYYCHLMASDFYKPSRRYLVELCNDLQGFLSDNEHNVLVINEPPRHGKSRTAGMFVQWLLGNDNDKKIMTGSYNETLSTVFSKNVRNAIQETKADEDVVVFNDIFPDTHIKYGDAAMNLWSLEGGYNNYLATSPTGTATGFGADIIIVDDLIKNAEEANNATVLEKHWEWFTNTMLSRLEEGGKIIIIMTRWHSQDLAGKALIELPKSDYKVKHISMKAYDEATDTMLCDEVLSKQAYLQKTKTMGADIASANYQQEPIDIKGRLYSGFKTYVDKPTFKRISAYTDTADTGKDYLASYIYGVTMDNEAYILDVVFTKEPMEVTEPLLAQKLAEWQVNTCDIESNNGGRGFARNVERLTQDSYQNRYTVFNWFHQSQNKQARILTNTTWAIEHIYFPENWRHRWSELYQNLMSYQREGKNAHDDAADALTGVVEAINDKIRTKAKVKRKSLYGL, MGSDKIHHHHHHMMERLIIDDSRFNFVPKVKTAYKAPPGLDEKLIMEISRAKDEPEWMLKHRLESLKVFNEWHNPRFGVDISGLDLGKIVSYIKPDAKKSTSWEEVPEEVKEAFDKLGIPEAERKYLAGVGAQLDSEIVYQNMKKELEKMGVIFLDMESAVREYPDLVKKYFMKLVPITDHKFAALHGAIWSGGTFLYVPAGVKIPMPLQAYFLMSNPGMGQFEHTIIVAEEGSEVTFIEGCSAPRYNIINLHAGMVEIYVKKGAKVKYLTIQNWSKNTYNLNTKRSIVDEEGSMTWVSGSLGSQKTMLYPMTILKGKGARAESMSITYAGPGQHMDTGSKVVHLAPYTSSIVSAKSISLGGGWAFYRGLLKITKEAVKSKASVECAALMLDNRSKSDTVPIIEVETDRADVGHEARIGRIGEDQIFYLMSRGLSEQEAKAMIVKGFVEPVVKELPFEYAVELNKLLELEIEKSIG, MGSDKIHHHHHHMMFVVNRHINYTDICVAKCPLCAFNNREGYLLSPEEILRKVREVDGITEVHIVGGHNPEVGVEYFEEVFRRIKREKPEVVIKALTATEVYYYAKKEKMSIREFLSRLKDAGLQAMPGGGAEILVDSVRRKISPNKCSSDEWLRVMKIAHELGIKSNATMLFGHVEEIRHRAIHLYRLRKLQEKTGGFVSFIPLVYHPENNPLGKIVREKTNPVDILKTIAVSRIALDNFRSVRAYWVMLGEKLTEVALRFGANDIDGTVVEEKVTHAAGAETPAGLTVERLVEICRSAGKRVGQRDTFCNILKWYA, MGSDKIHHHHHHMMIMLDPFSEKAKELLKGFGSINDFMDAIPKIVSVDDVIERIRVVKNEKLIDKFLDQDNVMDLAQFYALLGALSYSPYGIELELVKKANLIIYSERLKRKKEIKPEEISIDVSTAIEFPTEDVRKIERVYGKIPEYTMKISDFLDLVPDEKLANYYIYEGRVYLKREDLIRIWSKAFERNVERGVNMLYEIRDELPEFYRKVLGEIQAFAEEEFGRKFGEIQGGKLRPEFFPPCIKNALKGVPQGIRNYAITVLLTSFLSYARICPNPPRRNVRVKDCIKDIRVITEEILPIIIEAANRCSPPLFEDQPNEIKNIWYHLGFGYTANPSLEDSGNSTWYFPPNCEKIRANAPQLCTPDKHCKYIRNPLTYYLRRLYLEGRRNAPKRGNKRGKKELLHQ, MGSDKIHHHHHHMMRGAPMTLRPRLICLPPAGAGPSLFRSWVQNSESIFDVVPVALPGREAHFTKPLPRDIQSLADHVTNEIIGLLQAPYALFGYSMGAVVAYELLRHLSLRRLPLPDAFYILGSNAPDRVLEGREPIHSMTSEDFQQSLVEIGGTPDEILRDREAMALFEPVLRNDFRICETYEFTPPHLPVTFPVHVFVADADHLVSWKAAGAWENCIGQDITMHGIEGSHMLPPQAFAHFIGKLGQLWQTDQVQACAVSTRTA
